Biological target: T1, FLAG-tagged GSK3β (UniProt P49841 1-420)
T1 construct: glycogen synthase kinase-3β, expressed from a plasmid; also called FLAG-GSK3β; source: HEK-293, co-transfected, in lysate
Assay: co-IP; HEK-293 co-transfected with HA-TGase 2 and FLAG-GSK3β at increasing TGase 2:GSK3β plasmid ratios; TGase 2-GSK3β and GSK3β-β-catenin association followed
Conditions: partners not purified

T1 sequence (P49841 whole entry): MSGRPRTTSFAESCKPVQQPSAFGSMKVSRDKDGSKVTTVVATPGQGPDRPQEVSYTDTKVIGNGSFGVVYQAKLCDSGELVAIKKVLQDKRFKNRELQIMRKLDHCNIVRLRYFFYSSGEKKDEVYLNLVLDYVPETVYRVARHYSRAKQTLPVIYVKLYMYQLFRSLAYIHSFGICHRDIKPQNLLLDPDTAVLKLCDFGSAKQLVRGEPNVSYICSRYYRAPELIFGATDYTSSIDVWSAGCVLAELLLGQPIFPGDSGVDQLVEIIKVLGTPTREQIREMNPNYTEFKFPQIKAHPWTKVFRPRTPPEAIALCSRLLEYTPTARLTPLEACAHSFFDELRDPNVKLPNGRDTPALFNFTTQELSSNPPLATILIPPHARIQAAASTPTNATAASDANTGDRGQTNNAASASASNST

percent decrease of the interaction with GSK3β (of β-catenin, by the legend) at TGase 2:GSK3β plasmid ratio 1:1: 52% | percent decrease of the interaction with GSK3β (of β-catenin, by the legend) at TGase 2:GSK3β plasmid ratio 1:2: 45%
B1: HA-tagged wild-type TGase 2 (enzyme, UniProt P21980 1-687, looked up)
chain: MAEELVLERCDLELETNGRDHHTADLCREKLVVRRGQPFWLTLHFEGRNYEASVDSLTFSVVTGPAPSQEAGTKARFPLRDAVEEGDWTATVVDQQDCTLSLQLTTPANAPIGLYRLSLEASTGYQGSSFVLGHFILLFNAWCPADAVYLDSEEERQEYVLTQQGFIYQGSAKFIKNIPWNFGQFEDGILDICLILLDVNPKFLKNAGRDCSRRSSPVYVGRVVSGMVNCNDDQGVLLGRWDNNYGDGVSPMSWIGSVDILRRWKNHGCQRVKYGQCWVFAAVACTVLRCLGIPTRVVTNYNSAHDQNSNLLIEYFRNEFGEIQGDKSEMIWNFHCWVESWMTRPDLQPGYEGWQALDPTPQEKSEGTYCCGPVPVRAIKEGDLSTKYDAPFVFAEVNADVVDWIQQDDGSVHKSINRSLIVGLKISTKSVGRDEREDITHTYKYPEGSSEEREAFTRANHLNKLAEKEETGMAMRIRVGQSMNMGSDFDVFAHITNNTAEEYVCRLLLCARTVSYNGILGPECGTKYLLNLNLEPFSEKSVPLCILYEKYRDCLTESNLIKVRALLVEPVINSYLLAERDLYLENPEIKIRILGEPKQKRKLVAEVSLQNPLPVALEGCTFTVEGAGLTEEQKTVEIPDPVEAGEEVKVRMDLLPLHMGLHKLVVNFESDKLKAVKGFRNVIIGPA
notes: transglutaminase 2, wild type, expressed from a TGM2 plasmid; also called HA-tagged wild-type TGM2; HA-tagged TGase 2; source: HEK-293, co-transfected, in lysate

Source: article PMC12876850 (Cell Death & Disease, 2026)
